Biological target: NrdA-a/NrdA-b heterodimer of phage Aeh1, wild type (phage Aeh1)
Experiment: GEMMA

NrdA-a/NrdA-b heterodimer of phage Aeh1, wild type (complex)
stoichiometry N: 2

— publication PMC3045599
